# Measured values from the supplement of paper PMC10126150.
# ± gives the standard deviation of the averaged measurements.
# Test system: ATP
# Test: switch fluorescence ratio, 500 uM ATP over buffer (Cy3 cluster intensity, sum of 5 cycles each) (fold (ratio)); higher = stronger signal-on switching upon ATP binding; sequences stand for … in TCGTCGGCAGCGTCAGATGTGTATAAGAGACAGTTTTTTTTTTTTTTTTTTTTTTTTT…TC
# Conditions: aptamer strand: ATP DNA aptamer (quencher-CACCTGGGGGAGTATTGCGGAGGAAGG + anchor), 100 nM annealed; ATP concentration: 500 uM
# Procedure, shortened: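 Clusters with intensities outside 100-1000 RFU were excluded. The remaining Cy3-labelled switching-strand clusters on a modified Illumina MiSeq flow-cell had been annealed to 100 nM quencher-labelled ATP aptamer and imaged in selection buffer, then after 15 min with 500 uM ATP at 22 °C, for five cycles separated by NaOH stripping and re-annealing. The fluorescence ratio, averaged per switch-domain sequence, is each cluster's summed target-cycle Cy3 intensity over its summed buffer-cycle Cy3 intensity.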
# 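Further: ATP exposure 15 min at 22 °C before imaging.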
row,Sequence,switch fluorescence ratio
1,AATCGATTCC,1.04 ± 0.034
2,AATCGCGGCT,1.01 ± 0.029
3,AATCGCGTTT,1.017 ± 0.0012
4,AATCGGGAGG,0.963 ± 0.062
5,AATCGGGCAG,1.04 ± 0.021
6,AATCGGGGCT,0.992 ± 0.013
7,AATCGGGGTT,0.948 ± 0.015
8,AATCGGGTCT,0.999 ± 0.015
9,AATCGTCTTT,0.961 ± 0.024
10,AATCGTGGTT,1 ± 0.034
11,AATCGTTGGG,0.955 ± 0.038
12,AATCTCGTGG,0.995 ± 0.051
13,AATCTGATGT,1.18 ± 0.28
14,AATCTGCTGC,1.09 ± 0.056
15,AATCTGCTTG,1.05 ± 0.024
16,AATCTGGGCG,0.985 ± 0.016
17,AATCTGTCCT,1.04 ± 0.027
18,AATCTGTTCG,0.9708 ± 0.004
19,AATGAAAAGT,0.992 ± 0.017
20,AATGAAATAG,0.998 ± 0.0061
21,AATGACGAGC,1.04 ± 0.017
22,AATGACTTAA,1.01 ± 0.048
23,AATGAGAGTG,1 ± 0.035

row,Sequence,switch fluorescence ratio
1,AATGAGGGTA,1.04 ± 0.019
2,AATGAGGGTC,0.989 ± 0.11
3,AATGAGTCGG,0.998 ± 0.033
4,AATGAGTGTT,1.02 ± 0.042
5,AATGATCGGG,1.004 ± 0.0094
6,AATGATGCTT,1 ± 0.051
7,AATGCAACAG,1.15 ± 0.056
8,AATGCAATTG,1.03 ± 0.016
9,AATGCGCATC,1.05 ± 0.023
10,AATGCTCGCT,1.022 ± 0.0061
11,AATGCTTAGA,0.985 ± 0.03
12,AATGGATACT,1.03 ± 0.012
13,AATGGATGTG,0.991 ± 0.013
14,AATGGCAGTG,1 ± 0.048
15,AATGGCTGGG,0.999 ± 0.043
16,AATGGGATTG,0.972 ± 0.0096
17,AATGGGCAGC,1.02 ± 0.013
18,AATGGGGCTT,0.995 ± 0.03
19,AATGGGGGGA,0.998 ± 0.057
20,AATGGGGTCT,1.01 ± 0.047
21,AATGGGGTTA,0.997 ± 0.023
22,AATGGGTATC,0.9923 ± 0.0088
23,AATGGGTGGT,1 ± 0.017

row,Sequence,switch fluorescence ratio
1,AATGGGTTTG,1.01 ± 0.03
2,AATGGTAAGG,0.963 ± 0.033
3,AATGGTTCGC,1.009 ± 0.0069
4,AATGGTTCTC,0.985 ± 0.022
5,AATGGTTGAC,0.988 ± 0.017
6,AATGTAAAG,1.03 ± 0.011
7,AATGTAGACT,1.017 ± 0.0084
8,AATGTAGCAC,1.048 ± 0.0063
9,AATGTCAGAG,0.986 ± 0.02
10,AATGTCAGGA,1.01 ± 0.044
11,AATGTCCGTC,1.04 ± 0.046
12,AATGTCGCGC,0.961 ± 0.016
13,AATGTCTGTA,1.01 ± 0.044
14,AATGTGGGTG,1.03 ± 0.045
15,AATGTGGTCG,0.983 ± 0.085
16,AATGTGTGGG,1.01 ± 0.02
17,AATGTGTTG,0.984 ± 0.041
18,AATGTGTTTG,0.992 ± 0.042
19,AATGTTAGTG,0.958 ± 0.036
20,AATGTTATTA,0.995 ± 0.048
21,AATGTTCACG,1.02 ± 0.019
22,AATGTTCATG,1.031 ± 0.0061
23,AATGTTGTTT,0.976 ± 0.02

row,Sequence,switch fluorescence ratio
1,AATGTTTTCT,1.05 ± 0.057
2,AATGTTTTGT,0.994 ± 0.021
3,AATTAACCCA,1.05 ± 0.051
4,AATTAACTAT,1.02 ± 0.027
5,AATTAACTCT,1.05 ± 0.02
6,AATTAAGATA,0.991 ± 0.03
7,AATTAATTCC,1.07 ± 0.026
8,AATTAATTGG,0.994 ± 0.012
9,AATTACTGG,1 ± 0.031
10,AATTAGGAGT,1.06 ± 0.079
11,AATTAGGATT,0.99 ± 0.016
12,AATTAGGGGA,1 ± 0.014
13,AATTAGGGTG,1.09 ± 0.05
14,AATTAGGTTT,1 ± 0.035
15,AATTAGTACG,0.981 ± 0.052
16,AATTAGTTAT,0.9835 ± 0.0033
17,AATTATCTGC,0.976 ± 0.015
18,AATTATCTGT,0.9792 ± 0.0065
19,AATTATGGGA,0.986 ± 0.051
20,AATTATTACT,1.02 ± 0.034
21,AATTATTTTA,1.022 ± 0.0018
22,AATTCCTACG,2.571 ± 0.02
23,AATTCCTAGG,1.03 ± 0.025

row,Sequence,switch fluorescence ratio
1,AATTCGAGAT,1.01 ± 0.034
2,AATTCGCACG,1.034 ± 0.006
3,AATTCTAATA,0.9997 ± 0.0033
4,AATTCTGAGA,1.02 ± 0.048
5,AATTGAAGTG,1.022 ± 0.01
6,AATTGCCGCG,1.02 ± 0.055
7,AATTGCCGTG,0.99946 ± 0.00023
8,AATTGCGGGA,0.9893 ± 0.0085
9,AATTGGAATA,0.956 ± 0.038
10,AATTGGGACA,1 ± 0.01
11,AATTGGGGTT,1.012 ± 0.0052
12,AATTGGGTTG,0.957 ± 0.026
13,AATTGGTGGT,0.965 ± 0.032
14,AATTGTATGG,1.04 ± 0.044
15,AATTGTATGT,0.989 ± 0.029
16,AATTGTGAAA,1.01 ± 0.013
17,AATTGTGAGG,1.01 ± 0.023
18,AATTGTGCCG,1.1 ± 0.17
19,AATTGTGTTT,1.01 ± 0.021
20,AATTGTTGCT,0.99301 ± 0.00023
21,AATTTAAAG,0.992 ± 0.037
22,AATTTAAAGT,0.951 ± 0.052
23,AATTTAATTT,1.015 ± 0.006

row,Sequence,switch fluorescence ratio
1,AATTTAGACG,1.016 ± 0.0083
2,AATTTAGTAG,1 ± 0.013
3,AATTTATAGC,0.977 ± 0.034
4,AATTTATTGG,1.01 ± 0.013
5,AATTTCGTTG,0.999 ± 0.029
6,AATTTCTCGT,0.996 ± 0.016
7,AATTTGATAG,0.988 ± 0.018
8,AATTTGATGC,0.985 ± 0.018
9,AATTTGCAGT,1.004 ± 0.0043
10,AATTTGCGGT,0.988 ± 0.022
11,AATTTGCTAA,0.981 ± 0.013
12,AATTTGGGAA,0.999 ± 0.017
13,AATTTGGGGG,1.02 ± 0.039
14,AATTTGGGGT,0.995 ± 0.035
15,AATTTGGTG,1.026 ± 0.0011
16,AATTTGTATG,0.991 ± 0.028
17,AATTTGTTTG,1 ± 0.013
18,AATTTTAAGC,0.967 ± 0.041
19,AATTTTAATT,1 ± 0.027
20,AATTTTAGAA,1 ± 0.053
21,AATTTTAGTG,0.986 ± 0.02
22,AATTTTGGAG,0.996 ± 0.02
23,AATTTTGGTA,0.994 ± 0.016

row,Sequence,switch fluorescence ratio
1,AATTTTTATT,1.039 ± 0.0073
2,AATTTTTCTG,0.9869 ± 0.008
3,AATTTTTTT,0.992 ± 0.01
4,ACAAAAGACT,1.19 ± 0.25
5,ACAAAATTTT,1.03 ± 0.067
6,ACAAACGGGT,1.44 ± 0.073
7,ACAAACGTTC,1.34 ± 0.13
8,ACAAAGTGTG,1.03 ± 0.035
9,ACAAATTGGG,1.03 ± 0.092
10,ACAACGGCCG,1.05 ± 0.012
11,ACAACGGGGG,1.05 ± 0.025
12,ACAAGAAAGG,1.01 ± 0.035
13,ACAAGATTTT,0.9788 ± 0.0046
14,ACAAGCTTGT,0.975 ± 0.063
15,ACAAGGAGGC,0.983 ± 0.014
16,ACAAGGGAGC,0.954 ± 0.018
17,ACAAGGGATG,0.972 ± 0.041
18,ACAAGGGGCG,1.05 ± 0.079
19,ACAAGTGCGG,1.05 ± 0.024
